These results are taken from patent US20130171153A1 (TRANSBIO, published 2013).

By Kd is commonly meant the free concentration of one partner at which half of the binding sites on the other are occupied at equilibrium, for simple one-to-one binding. A higher Kd goes with weaker binding. As a reminder, the koff is the rate constant with which the complex falls apart. The kon is the second-order rate constant of association. Low values mean slow association, high ones fast association.

One test has as its target T1, mouse PI16 (mouse, UniProt Q9ET66 30-498, limits assumed).
T1 construct: also called Mus musculus PI16
T1 sequence: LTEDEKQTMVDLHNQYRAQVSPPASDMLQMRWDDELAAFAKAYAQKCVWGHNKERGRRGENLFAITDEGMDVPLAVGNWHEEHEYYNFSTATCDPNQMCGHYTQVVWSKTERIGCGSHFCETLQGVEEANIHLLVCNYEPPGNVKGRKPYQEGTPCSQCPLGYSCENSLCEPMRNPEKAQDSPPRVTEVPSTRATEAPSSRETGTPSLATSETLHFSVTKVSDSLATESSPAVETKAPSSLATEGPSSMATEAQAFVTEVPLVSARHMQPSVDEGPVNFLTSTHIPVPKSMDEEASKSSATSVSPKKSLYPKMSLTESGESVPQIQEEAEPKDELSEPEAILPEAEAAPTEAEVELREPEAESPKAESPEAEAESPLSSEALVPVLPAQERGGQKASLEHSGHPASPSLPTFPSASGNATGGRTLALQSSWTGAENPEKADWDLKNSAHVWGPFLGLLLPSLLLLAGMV
The test is described as follows: not described.

Test [1] deals with T2, Abnova recombinant PI16 protein (expressed using a wheat germ cell free system) (UniProt Q6UXB8 1-463, limits assumed).
T2 construct: Bought product; also called Rec. protein Abnova; Abnova recombinant protein
T2 sequence (looked up): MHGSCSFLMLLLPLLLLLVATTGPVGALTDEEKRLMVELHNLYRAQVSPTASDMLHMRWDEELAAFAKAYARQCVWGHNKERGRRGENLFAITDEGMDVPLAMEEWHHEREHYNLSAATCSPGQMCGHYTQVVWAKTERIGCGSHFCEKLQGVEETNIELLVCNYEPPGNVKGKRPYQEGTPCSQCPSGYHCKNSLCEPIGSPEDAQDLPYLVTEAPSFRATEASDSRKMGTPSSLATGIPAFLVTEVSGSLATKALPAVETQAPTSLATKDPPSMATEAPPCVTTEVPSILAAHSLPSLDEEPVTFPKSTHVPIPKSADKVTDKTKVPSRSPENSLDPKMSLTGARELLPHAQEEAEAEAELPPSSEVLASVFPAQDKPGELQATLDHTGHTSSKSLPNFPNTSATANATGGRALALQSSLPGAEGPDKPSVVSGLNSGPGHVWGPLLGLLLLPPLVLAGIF
Put plainly: slot blot. The procedure: 100 μl of samples (as indicated) were loaded into each slot onto nitrocellulose membrane (Protran; Schleicher & Schuell) under vacuum. After loading, the blot was blocked for 1 hour at RT with 3% skim milk powder (Diploma) in PBS Tween 0.05% (block buffer). The primary Ab (secreted by CRCBT-02-001 or the polyclonal PI16 antibody from Abnova) was diluted in block buffer one in two and incubated on a platform rocker for 1 hour at RT. The blot was washed 3×5 minutes with PBS tween. Biotinylated horse anti mouse (Vector) 1/1000 diluted in block buffer was added and incubated for one hour at RT on rocking platform. The blot was washed 3×5 minutes with PBS tween. A dilution of 1/1000 SA:HRP (GE Healthcare) in block buffer was added and incubated for one hour at RT on rocking platform. The blot was washed 3×5 minutes with PBS tween. An appropriate volume of ECL solutions A and B (enough to cover membrane surface; ECL Advance Western Blotting Kit, GE Healthcare) was added and incubated for one minute with constant shaking. The blot was read immediately in a G:Box (Syngene) upon 15 seconds UV-exposure.
To determine the protein to which the monoclonal antibody binds, slot blots were performed.

Test [2] addresses T3, fragment of PI16 expressed by phage clone 4 (round 3) (human).
T3 construct: also called R3 4
T3 chain: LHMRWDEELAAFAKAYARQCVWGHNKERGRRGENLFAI
The test is described as follows: phage ELISA of PI16 gene fragment clones. On the technique in general: An ELISA detects its analyte on a solid surface through an enzyme-linked reagent.

The target of test [3] is T4, fragment of PI16 expressed by phage clone 7 (round 3) (human).
T4 construct: also called R3 7
T4 chain: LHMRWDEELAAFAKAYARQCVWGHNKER
The test is described as follows: phage ELISA of PI16 gene fragment clones.

Test [4] concerns the target T5, fragment of PI16 expressed by phage clone 10 (round 3) (human).
T5 construct: also called R3 10
T5 chain: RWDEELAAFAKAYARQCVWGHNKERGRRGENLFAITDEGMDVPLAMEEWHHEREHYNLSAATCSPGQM
The test is described as follows: phage ELISA of PI16 gene fragment clones.

Test [5] concerns the target T6, fragment of PI16 expressed by phage clone 12 (round 3) (human).
T6 construct: also called R3 12
T6 chain: LHMRWDEELAAFAKAYARQ
The test is described as follows: phage ELISA of PI16 gene fragment clones.

Test [6] deals with T7, fragment of PI16 expressed by phage clone 15 (round 3) (human).
T7 construct: also called R3 15
T7 chain: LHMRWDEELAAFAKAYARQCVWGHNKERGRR
The test is described as follows: phage ELISA of PI16 gene fragment clones.

The target of test [7] is T8, PI16-Fc (extracellular domain of human PI16, aa 28-443, tev-protease cleavage site, C-terminal human Fc) (human, UniProt P01857-1 104-330 = IgG part).
T8 construct: domain: Fc; also called recombinant PI16-Fc; native PI16-Fc; not shown: tev-protease cleavage site
T8 sequence (P01857 other isoform, or with tags, fused parts or gaps): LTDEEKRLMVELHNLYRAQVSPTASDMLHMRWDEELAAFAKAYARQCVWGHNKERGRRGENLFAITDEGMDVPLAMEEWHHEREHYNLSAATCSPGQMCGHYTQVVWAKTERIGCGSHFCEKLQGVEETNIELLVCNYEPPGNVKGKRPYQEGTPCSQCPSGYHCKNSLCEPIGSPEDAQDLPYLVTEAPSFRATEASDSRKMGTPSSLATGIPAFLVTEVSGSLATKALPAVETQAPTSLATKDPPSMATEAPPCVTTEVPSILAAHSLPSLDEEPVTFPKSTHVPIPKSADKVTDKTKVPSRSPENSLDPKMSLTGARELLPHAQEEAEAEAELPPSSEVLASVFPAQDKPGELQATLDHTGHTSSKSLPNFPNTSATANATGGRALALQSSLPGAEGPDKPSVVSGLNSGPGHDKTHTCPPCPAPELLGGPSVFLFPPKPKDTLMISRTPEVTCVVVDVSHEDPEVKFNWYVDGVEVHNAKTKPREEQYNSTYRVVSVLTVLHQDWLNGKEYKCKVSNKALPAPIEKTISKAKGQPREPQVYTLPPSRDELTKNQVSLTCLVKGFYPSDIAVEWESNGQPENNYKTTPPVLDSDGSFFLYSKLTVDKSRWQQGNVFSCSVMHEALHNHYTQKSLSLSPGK
Put plainly: SPR (ProteOn XPR36), mAb captured by anti-mouse IgG on GLM chip, PI16-Fc as analyte, Langmuir global fit. The protocol:
A proteOn sensor chip (GLM) was activated by flowing a mixture of 0.2 M EDC and 0.05 M sulpho-NHS over the chip ([…] at 30 μL/min for 5 minutes). Rabbit anti-mouse IgG whole molecule (Sigma M-7023) was then coupled to the chip in the vertical orientation by flowing 150 μL of a 50 μg/mL solution in 10 mM acetate buffer (pH 4.5) at 30 μL/min. The remaining coupling sites were then deactivated by flowing 150 μL of 1 M ethanolamine-HCl (pH 8.5) at 30 μL/min. Mouse monoclonal anti PI16 IgG was then allowed to flow over and be captured by the coupled anti-mouse IgG antibody by flowing 150 μL of 100 μg/mL IgG at 25 μL/min over a single channel of the sensor chip in the horizontal direction. […] PBS Tween 20 (0.005%) alone was passed over the remaining channel and served as a reference. Binding sensorgrams were collected and analysed with the ProteOn Manager 2.1×PR36 software using the Langmuir kinetic model to fit the data and determine the affinity constant (KD).
The published method (Nahshol et al., 2008) was used to measure the kinetics of the PI16 mab by anti-mouse capture. This is a relatively mild method coupling method and the association and dissociation curves and affinity measurement was performed with 4 dilutions of the PI16-Fc (FIG. 43 and Table 9). The data fitted well to a Langmuir kinetic model using global fit (all the curves fitted simultaneously).

The target in test [8] is T8, PI16-Fc (extracellular domain of human …). Put plainly: SPR (ProteOn XPR36), PI16-Fc amine-coupled to GLC chip, Fab as analyte, Langmuir global fit. The procedure:
A ProteOn sensor chip (GLC) was activated by flowing a mixture of 0.2 M N-ethyl-N′-(3-dimethylaminopropyl) carbodiimide (EDC) and 0.05 M sulfo-N-hydroxysuccinimide (sulfo-NHS) over the chip (150 μL at 30 μL/min for 5 minutes). Recombinant PI16-Fc was coupled to the chip in the vertical orientation by flowing 150 μL of a 50 μg/mL solution in 10 mM acetate buffer (pH 4.5) at 30 μL/min. The remaining activated carboxyl group were then deactivated by flowing 150 μL of 1 M ethanolamine-HCl (pH 8.5) at 30 μL/min. […] PBS Tween 20 (0.005%) alone was passed over the remaining channel. Binding sensorgrams were collected and analysed with the ProteOn Manager 2.1×PR36 software using the Langmuir kinetic model to fit the data and determine the affinity constant (KD).
This coupling method was performed using various pHs to optimise the coupling of PI16-Fc to the GLC chip. The optimal coupling pH was 4.5. The association and dissociation curves and affinity measurement was performed with 3 dilutions of the PI16 Fab shown in FIG. 42 and Table 8. The data fitted well to a Langmuir kinetic model using global fit (all the curves fitted simultaneously).

B1: antibody produced by the hybridoma designated CRCBT-02-001 (ATCC PTA-10685) (antibody, V domains shown)
VH: FGGGLVQPGGSMKLSCVASGFTFSYYWMNWVRQSPEQGLEWIAEIRLQSNDYPTHYAESVKGRFTISRDDSKNSVYLQMNNLRPEDTGIYYCACRYADYFDHWGQGTTLTVSS
VL: VMTQSPAILSVYPGEKVTMTCRASLSVSYMHWCQQKPGSSPKSWIYATSNLASGVPARFSGSGSGTSYSLTISRVEAEDAATYYCQQWSSNPFTFGSGTKLEIKR
notes: constant regions are not; Used as hybridoma supernatant or as Protein G purified antibody; also called CRCBT-002-001; P1G5-P2B3
For B1, the binding result was “no binding” with mouse PI16; “no binding” in test [1]; “binds” in [2]; “binds” in test [3]; “binds” in [4]; “binds” in test [5]. In addition, the binding result in test [6] is on record as “binds”. The molecule further came in with a Kd in [7] of 2.56 nM. Also, the koff in test [7] is 0.000149 s⁻¹. The same molecule had a kon in test [7] of 58200 M⁻¹ s⁻¹.

B2: CRCBT-02-001 Fab (Fab, V domains shown)
VH: B1 VH
VL: B1 VL
notes: also called PI16 Fab; Anti-PI16 Fab fragment
For the molecule B2, in test [8], the Kd turned out to be 1.25 nM, the koff is 0.000372 s⁻¹ and the kon amounted to 297000 M⁻¹ s⁻¹.
